Results from patent US20240417459A1 (CELLDEX THERAPEUTICS, published 2024).

Target: T1, human ILT4 expressed on HEK293 cells (human, UniProt Q8N423 22-597)
T1 construct: also called LILRB2; LIR2
Assay: bifunctional flow cytometry: bispecific bound to HEK293 cells expressing human ILT4, then human PD-L1-msFc detected with PE anti-mouse IgG Fc
Protocol: Binding of bispecific constructs to ILT4 and PD-L1 was assessed using HEK293 cells expressing human ILT4. In brief, dilutions of the bispecific constructs were allowed to bind to the ILT4 expressing cell before adding human PD-L1-msFc that was detected with PE labeled goat anti-mouse IgG Fc-specific probe.

T1 sequence (Q8N423 other isoform, or with tags, fused parts or gaps limits assumed): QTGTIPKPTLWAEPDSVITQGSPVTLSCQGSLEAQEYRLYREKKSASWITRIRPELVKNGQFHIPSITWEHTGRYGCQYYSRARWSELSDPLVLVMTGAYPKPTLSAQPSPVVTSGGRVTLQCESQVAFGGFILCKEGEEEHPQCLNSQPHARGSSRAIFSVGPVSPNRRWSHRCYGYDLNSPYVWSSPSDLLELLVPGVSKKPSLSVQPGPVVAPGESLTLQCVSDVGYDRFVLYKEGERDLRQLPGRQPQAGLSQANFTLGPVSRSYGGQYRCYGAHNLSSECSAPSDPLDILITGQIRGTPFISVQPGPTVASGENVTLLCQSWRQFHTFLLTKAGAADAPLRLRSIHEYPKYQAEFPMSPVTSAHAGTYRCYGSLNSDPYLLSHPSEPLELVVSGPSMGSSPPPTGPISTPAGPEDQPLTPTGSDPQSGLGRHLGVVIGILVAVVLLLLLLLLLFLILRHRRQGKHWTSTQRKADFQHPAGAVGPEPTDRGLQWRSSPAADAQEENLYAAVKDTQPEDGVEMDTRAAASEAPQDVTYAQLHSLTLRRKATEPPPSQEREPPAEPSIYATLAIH

| binding result | Binder |
| --- | --- |
| binds | 9H9-7B1 HL (bispecific antibody, human IgG1, kappa, Tetravalent bispecific: anti-PD-L1 9H9 on a mutated human IgG1 (AQQ Fc) with the 7B1 scFv (VH-VL) at the C-terminus of the heavy chain; also called 9H9 AQQ-7B1 H2L1; PD-L1xILT4 bispecific antibody) heavy: not shown light: DIQMTQSPSTLSASVGDRVTITCRASQSISGWLAWYQQKPGKAPKLLIYKASSLESGVPSRFSGSGSGTEFTLTISSLQPDDFATYYCQQYYGSSRTFGQGTNVEIKRTVAAPSVFIFPPSDEQLKSGTASVVCLLNNFYPREAKVQWKVDNALQSGNSQESVTEQDSKDSTYSLSSTLTLSKADYEKHKVYACEVTHQGLSSPVTKSFNRGEC |
| binds | 9H9-7B1 LH (bispecific antibody, human IgG1, kappa, Tetravalent bispecific as 9H9-7B1 HL, but with the scFv in the VL-VH orientation; also called 9H9 AQQ-7B1 L1H2; PD-L1xILT4 bispecific antibody) heavy: not shown light: DIQMTQSPSTLSASVGDRVTITCRASQSISGWLAWYQQKPGKAPKLLIYKASSLESGVPSRFSGSGSGTEFTLTISSLQPDDFATYYCQQYYGSSRTFGQGTNVEIKRTVAAPSVFIFPPSDEQLKSGTASVVCLLNNFYPREAKVQWKVDNALQSGNSQESVTEQDSKDSTYSLSSTLTLSKADYEKHKVYACEVTHQGLSSPVTKSFNRGEC |
